The target in the test is T1, CPP32, bacterially expressed recombinant active enzyme (human), P42574.
T1 chain: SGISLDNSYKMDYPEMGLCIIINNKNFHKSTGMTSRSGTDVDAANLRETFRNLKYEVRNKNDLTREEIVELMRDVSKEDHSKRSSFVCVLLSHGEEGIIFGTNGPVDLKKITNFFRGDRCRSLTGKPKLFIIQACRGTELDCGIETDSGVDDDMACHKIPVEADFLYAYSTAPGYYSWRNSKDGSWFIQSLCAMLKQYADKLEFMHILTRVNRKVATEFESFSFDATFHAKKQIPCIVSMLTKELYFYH
Put plainly: inhibition of hydrolysis of 10 µM DEVD-AMC, continuous fluorometric assay, bacterial lysate, 30 min preincubation. The conditions noted are these: remark: other sources report otherwise.

No end group written: not given here.

The term Ki denotes a dissociation constant, usually derived from enzyme kinetics or from competition with a known ligand. With YVAD-aldehyde [YVAD aldehyde], the Ki stood at 8.5 µM.

These data come from US20030119169A1.
